Data published in patent US20190309059A1 (SHANGHAI PHARMAEXPLORER, published 2019).

Experiments:
[1] = target: cynomolgus IL-13 (purchased from sino biological) (cynomolgus) (UniProt Q0PW92); experiment: ELISA, cynomolgus IL-13; antibody at 2.67 nM
[2] = target: his-labeled human IL-13 (immunogen A) (human) (UniProt P35225); experiment: FACS blocking, biotin-IL-13 on IL-13Ra2 HEK293 cells; antibody at 166.67 nM
[3] = target: his-labeled human IL-13 (immunogen A) (human) (UniProt P35225); experiment: FACS blocking, biotin-IL-13 on IL-13Ra1/IL-4Ra HEK293 cells; antibody at 6.67 nM
[4] = target: his-labeled human IL-13 (immunogen A) (human) (UniProt P35225); experiment: FACS blocking, biotin-IL-13 on IL-13Ra1/IL-4Ra HEK293 cells; antibody at 0.01 nM
[5] = target: cynomolgus IL-13 (purchased from sino biological) (cynomolgus) (UniProt Q0PW92); experiment: ELISA, cynomolgus IL-13; antibody at 0.021 nM
[6] = target: his-labeled human IL-13 (immunogen A) (human) (UniProt P35225); experiment: ELISA, biotin-immunogen A; antibody at 0.53 nM
[7] = target: his-labeled human IL-13 (immunogen A) (human) (UniProt P35225); experiment: FACS blocking, biotin-IL-13 on IL-13Ra2 HEK293 cells; antibody at 1.33 nM
[8] = target: his-labeled human IL-13 (immunogen A) (human) (UniProt P35225); experiment: ELISA, biotin-immunogen A; antibody at 2.67 nM
[9] = target: his-labeled human IL-13 (immunogen A) (human) (UniProt P35225); experiment: FACS blocking, biotin-IL-13 on IL-13Ra2 HEK293 cells; antibody at 33.33 nM
[10] = target: his-labeled human IL-13R130Q variant (human) (UniProt P35225); experiment: ELISA, IL-13R130Q variant; antibody at 0.53 nM
Sequence of his-labeled human IL-13R130Q variant (human) (P35225 other isoform, or with tags, fused parts or gaps mutant): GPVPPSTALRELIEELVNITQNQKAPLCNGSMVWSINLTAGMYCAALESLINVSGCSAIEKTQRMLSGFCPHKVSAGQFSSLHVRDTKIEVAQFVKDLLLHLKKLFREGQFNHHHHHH

[11] = target: his-labeled human IL-13 (immunogen A) (human) (UniProt P35225); experiment: FACS blocking, biotin-IL-13 on IL-13Ra1/IL-4Ra HEK293 cells; antibody at 0.002 nM
[12] = target: his-labeled human IL-13 (immunogen A) (human) (UniProt P35225); experiment: FACS blocking, biotin-IL-13 on IL-13Ra2 HEK293 cells; antibody at 0.002 nM
[13] = target: his-labeled human IL-13 (immunogen A) (human) (UniProt P35225); experiment: FACS blocking, biotin-IL-13 on IL-13Ra1/IL-4Ra HEK293 cells; antibody at 0.05 nM
[14] = target: his-labeled human IL-13 (immunogen A) (human) (UniProt P35225); experiment: cell-based or functional assay
[15] = target: his-labeled human IL-13 (immunogen A) (human) (UniProt P35225); experiment: SPR (Biacore), antibody captured by anti-human Fc, immunogen A as analyte
[16] = target: his-labeled human IL-13 (immunogen A) (human) (UniProt P35225); experiment: FACS blocking, biotin-IL-13 on IL-13Ra2 HEK293 cells; antibody at 0.01 nM
[17] = target: his-labeled human IL-13 (immunogen A) (human) (UniProt P35225); experiment: FACS blocking, biotin-IL-13 on IL-13Ra1/IL-4Ra HEK293 cells; antibody at 166.67 nM
[18] = target: his-labeled human IL-13 (immunogen A) (human) (UniProt P35225); experiment: FACS blocking, biotin-IL-13 on IL-13Ra2 HEK293 cells; antibody at 0.05 nM
[19] = target: his-labeled human IL-13 (immunogen A) (human) (UniProt P35225); experiment: FACS blocking, biotin-IL-13 on IL-13Ra2 HEK293 cells; antibody at 6.67 nM
[20] = target: his-labeled human IL-13 (immunogen A) (human) (UniProt P35225); experiment: FACS blocking, biotin-IL-13 on IL-13Ra1/IL-4Ra HEK293 cells; antibody at 33.33 nM
[21] = target: his-labeled human IL-13 (immunogen A) (human) (UniProt P35225); experiment: FACS blocking, biotin-IL-13 on IL-13Ra1/IL-4Ra HEK293 cells; antibody at 1.33 nM
[22] = target: cynomolgus IL-13 (purchased from sino biological) (cynomolgus) (UniProt Q0PW92); experiment: ELISA, cynomolgus IL-13; antibody at 0.53 nM
[23] = target: his-labeled human IL-13 (immunogen A) (human) (UniProt P35225); experiment: FACS blocking, biotin-IL-13 on IL-13Ra1/IL-4Ra HEK293 cells; antibody at 0.27 nM
[24] = target: his-labeled human IL-13R130Q variant (human) (UniProt P35225); experiment: ELISA, IL-13R130Q variant; antibody at 2.67 nM
[25] = target: his-labeled human IL-13 (immunogen A) (human) (UniProt P35225); experiment: FACS blocking, biotin-IL-13 on IL-13Ra2 HEK293 cells; antibody at 0.27 nM
[26] = target: cynomolgus IL-13 (purchased from sino biological) (cynomolgus) (UniProt Q0PW92); experiment: ELISA, cynomolgus IL-13; antibody at 0.004 nM

Sequence of cynomolgus IL-13 (purchased from sino biological) (cynomolgus) (Q0PW92 entry or part of it): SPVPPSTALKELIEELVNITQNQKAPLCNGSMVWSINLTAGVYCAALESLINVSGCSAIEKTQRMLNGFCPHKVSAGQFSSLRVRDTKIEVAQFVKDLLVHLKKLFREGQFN

B1: c35E2C3 (mouse-human chimeric IL-13 antibody) (antibody, V domains shown)
VH: EVQLQESGPGLAKPSQTLSLTCSVTGYSITSDYWNWIRKFPGNKLEYMGYISYNGNTYYNPSLKSQISITRDTSKNQLYLQLKSATTEDTATYYCARLAKWTWYFDIWGTGTTVTVSS
VL: DIQMNQSPSSLSASLGDTITITCHASQNINVWLSWYQQKPGSLPKLLIYKASDLHTGVPSRFSGSGSGTGFTLTISSLQPEDIATYYCQQGQSYPYTFGGGTKLEIK
OD450 nm [1]: 1.63 | mean fluorescence intensity [2]: 19.3 | mean fluorescence intensity [3]: 19.5 | mean fluorescence intensity [4]: 96.8 | OD450 nm [5]: 0.136 | OD450 nm [6]: 1.63 | mean fluorescence intensity [7]: 29 | OD450 nm [8]: 2.4 | mean fluorescence intensity [9]: 20.3 | OD450 nm [10]: 2.4 | mean fluorescence intensity [11]: 102 | mean fluorescence intensity [12]: 99.1 | mean fluorescence intensity [13]: 96.7 | Periostin (pg/mL), MRCS cells + IL-13 5 ng/mL; antibody at 0.0002 nM [14]: 7100 pg/mL | Periostin (pg/mL), MRCS cells + IL-13 5 ng/mL; antibody at 0.001 nM [14]: 6020 pg/mL | Periostin (pg/mL), MRCS cells + IL-13 5 ng/mL; antibody at 0.004 nM [14]: 4870 pg/mL | Periostin (pg/mL), MRCS cells + IL-13 5 ng/mL; antibody at 0.021 nM [14]: 4480 pg/mL | Periostin (pg/mL), MRCS cells + IL-13 5 ng/mL; antibody at 0.11 nM [14]: 4360 pg/mL | Periostin (pg/mL), MRCS cells + IL-13 5 ng/mL; antibody at 0.53 nM [14]: 4460 pg/mL | Periostin (pg/mL), MRCS cells + IL-13 5 ng/mL; antibody at 2.67 nM [14]: 2850 pg/mL | Periostin (pg/mL), MRCS cells + IL-13 5 ng/mL; antibody at 13.3 nM [14]: 1350 pg/mL | TARC (pg/mL), A549 cells + IL-13 + TNFα; antibody at 0.001 nM [14]: 3200 pg/mL | TARC (pg/mL), A549 cells + IL-13 + TNFα; antibody at 0.004 nM [14]: 3150 pg/mL | TARC (pg/mL), A549 cells + IL-13 + TNFα; antibody at 0.021 nM [14]: 3040 pg/mL | TARC (pg/mL), A549 cells + IL-13 + TNFα; antibody at 0.11 nM [14]: 2610 pg/mL | TARC (pg/mL), A549 cells + IL-13 + TNFα; antibody at 0.53 nM [14]: 2370 pg/mL | TARC (pg/mL), A549 cells + IL-13 + TNFα; antibody at 2.67 nM [14]: 1090 pg/mL | TARC (pg/mL), A549 cells + IL-13 + TNFα; antibody at 13.3 nM [14]: 227 pg/mL | TARC (pg/mL), A549 cells + IL-13 + TNFα; antibody at 66.7 nM [14]: 54 pg/mL | VCAM-1 fluorescence intensity, HUVEC + IL-13 0.5 ng/mL + TNFα; antibody at 0.0002 nM [14]: 408 | VCAM-1 fluorescence intensity, HUVEC + IL-13 0.5 ng/mL + TNFα; antibody at 0.001 nM [14]: 402 | VCAM-1 fluorescence intensity, HUVEC + IL-13 0.5 ng/mL + TNFα; antibody at 0.004 nM [14]: 452 | VCAM-1 fluorescence intensity, HUVEC + IL-13 0.5 ng/mL + TNFα; antibody at 0.021 nM [14]: 408 | VCAM-1 fluorescence intensity, HUVEC + IL-13 0.5 ng/mL + TNFα; antibody at 0.11 nM [14]: 313 | VCAM-1 fluorescence intensity, HUVEC + IL-13 0.5 ng/mL + TNFα; antibody at 0.53 nM [14]: 299 | VCAM-1 fluorescence intensity, HUVEC + IL-13 0.5 ng/mL + TNFα; antibody at 2.67 nM [14]: 238 | VCAM-1 fluorescence intensity, HUVEC + IL-13 0.5 ng/mL + TNFα; antibody at 13.3 nM [14]: 165 | Kd [15]: 863 pM | koff [15]: 0.00026 s⁻¹ | kon [15]: 300000 M⁻¹ s⁻¹ | mean fluorescence intensity [16]: 98.1 | mean fluorescence intensity [17]: 18.7 | mean fluorescence intensity [18]: 90 | mean fluorescence intensity [19]: 22.2 | mean fluorescence intensity [20]: 19.6 | mean fluorescence intensity [21]: 33.1 | OD450 nm [22]: 0.59 | mean fluorescence intensity [23]: 81.5 | OD450 nm [24]: 3.1 | mean fluorescence intensity [25]: 63.8 | OD450 nm [26]: 0.061
